Assay results taken from publication doi:10.1101/671792 (bioRxiv, 2019).

B1: Arabidopsis thaliana NBR1 PB1 domain, residues 1-95 (domain or fragment)
chain: MESTANALVVKVSYGGVLRRFRVPVKANGQLDLEMAGLKEKIAALFNLSADAELSLTYSDEDGDVVALVDDNDLFDVTNQRLKFLKINVNAGVST

Key:
sedimentation = molecular target: the molecule itself; assay: sedimentation
[1] = molecular target: B1; assay: pull-down

| binding result [1] | Binder | binding result (sedimentation) |
| --- | --- | --- |
| – | p62/SQSTM1 PB1 domain, residues 1-102 (domain or fragment) MASLTVKAYLLGKEDAAREIRRFSFCCSPEPEAEAEAAAGPGPCERLLSRVAALFPALRPGGFQAHYRDEDGDLVAFSSDEELTMAMSYVKDDIFRIYIKEK | binds |
| binds | MBP-tagged wild-type AtNBR1-PB1 (domain or fragment) MESTANALVVKVSYGGVLRRFRVPVKANGQLDLEMAGLKEKIAALFNLSADAELSLTYSDEDGDVVALVDDNDLFDVTNQRLKFLKINVNAGVST | – |
| – | B1 | binds |
| – | TFG-1 (Trk-fused gene 1) PB1 domain, residues 1-95 (domain or fragment) MNGQLDLSGKLIIKAQLGEDIRRIPIHNEDITYDELVLMMQRVFRGKLLSNDEVTIKYKDEDGDLITIFDSSDLSFAIQCSRILKLTLFVNGQPR | binds |
